The text below walks through data of paper PMC6362308.

The target in the test is taxol-stabilized microtubules. The test is described as follows: co-sedimentation; 0.1 uM recombinant RECQL4 with or without 2 uM taxol-stabilized microtubules, 15 min, 20,000 g for 10 min at RT; supernatant and pellet analysed by Coomassie staining and Western blot against His6-tag (Fig 1B). (Immunoblotting shows a protein as a band on a membrane.)
Sequence of taxol-stabilized microtubules (P68363 whole entry, chain 1 of 2): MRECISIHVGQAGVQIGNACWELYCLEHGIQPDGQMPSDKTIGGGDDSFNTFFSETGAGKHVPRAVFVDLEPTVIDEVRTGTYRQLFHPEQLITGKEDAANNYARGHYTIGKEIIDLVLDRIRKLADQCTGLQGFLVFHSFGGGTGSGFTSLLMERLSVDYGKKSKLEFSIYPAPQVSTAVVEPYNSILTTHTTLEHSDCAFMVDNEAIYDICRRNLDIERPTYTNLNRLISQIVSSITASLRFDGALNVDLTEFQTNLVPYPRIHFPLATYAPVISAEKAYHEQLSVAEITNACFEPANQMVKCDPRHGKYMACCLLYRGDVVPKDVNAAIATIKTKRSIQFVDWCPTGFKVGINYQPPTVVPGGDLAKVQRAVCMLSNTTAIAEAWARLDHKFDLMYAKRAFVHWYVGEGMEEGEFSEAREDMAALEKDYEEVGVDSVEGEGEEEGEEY
Sequence of taxol-stabilized microtubules (A8K068 whole entry, chain 2 of 2, further chain): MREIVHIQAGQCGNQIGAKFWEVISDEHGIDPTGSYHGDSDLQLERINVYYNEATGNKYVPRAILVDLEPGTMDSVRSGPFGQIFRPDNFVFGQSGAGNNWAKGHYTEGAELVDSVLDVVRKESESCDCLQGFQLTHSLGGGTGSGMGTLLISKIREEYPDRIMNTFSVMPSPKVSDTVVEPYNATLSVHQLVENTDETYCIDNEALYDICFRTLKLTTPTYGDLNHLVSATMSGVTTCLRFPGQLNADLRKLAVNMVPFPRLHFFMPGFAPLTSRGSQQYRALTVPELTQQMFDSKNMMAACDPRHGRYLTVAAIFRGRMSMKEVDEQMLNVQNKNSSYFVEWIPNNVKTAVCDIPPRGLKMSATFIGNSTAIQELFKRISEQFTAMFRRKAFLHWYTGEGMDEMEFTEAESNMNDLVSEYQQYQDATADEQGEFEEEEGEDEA

As for “Recombinant Xenopus RECQL4 expressed in insect cells (natural protein)”, the percent of the protein in the pellet was determined as 100%.
